Results reported in patent US20250009852A1, “DEPLETING EGFR AND HER2 OVERCOMES RESISTANCE TO EGFR INHIBITORS IN COLORECTAL CANCER” (Health Research, Inc., priority 2021, published 2025).

System: SW48 tumors
Assay: Subcutaneous SW48 tumors in SCID mice
Type: in vivo, mouse
Details: sc SW48 tumors; EP 0.5 mg/kg ip daily plus PEPD^G278D 4 mg/kg ip three times weekly, or cetuximab 15 mg/kg ip twice weekly
Experimental: SCID mice (C.B.17 SCID) were bred by the Laboratory Animal Shared Resource at Roswell Park Comprehensive Cancer Center. Male mice at 7-8 weeks of age were used. All mouse experiments were approved by the Institutional Animal Care and Use Committee at Roswell Park Comprehensive Cancer Center under protocol 1022M. We established subcutaneous tumors by inoculating 1×10^6 HCT116 cells, 4×10^6 HT29 cells, or 2×10^6 SW48 cells to the flank of each mouse in 100 μl of serum free medium. Colon patient-derived xenograft (PDX) 14650 was established from a liver metastatic lesion in a patient treated at Roswell Park Comprehensive Cancer Center. Tumor fragments (˜20 mm^3) from donor mice were implanted into the flank of each mouse subcutaneously using a trocar. […] Subcutaneous tumor volume was measured using length ×width^2÷2. Tumor volume was measured three times each week. Orthotopic tumor growth was monitored by bioluminescence weekly. Mice were given D-luciferin (150 mg/kg) by ip and anesthetized with isoflurane, and tumor burden was measured by bioluminescence using the IVIS Spectrum In Vivo Imaging System (PerkinElmer). Drug treatment was started when significant tumor growth was detected. […] The mice were closely monitored for sign of adverse effects and weighed three times each week. […]

B1: PEPD^G278D: recombinant and enzymatically inactive mutant of human peptidase D (PEPD), with replacement of glycine 278 by aspartic acid (protein)
chain: AAATGPSFWLGNETLKVPLALFALNRQRLCERLRKNPAVQAGSIVVLQGGEETQRYCTDTGVLFLQESFFHWAFGVTEPGCYGVIDVDTGKSTLFVPRLPASHATWMGKIHSKEHFKEKYAVDDVQYVDEIASVLTSQKPSVLLTLRGVNTDSGSVCREASFDGISKFEVNNTILHPEIVESRVFKTDMELEVLRYTNKISSEAHREVMKAVKVGMKEYGLESLFEHYCYSRGGMRHSSYTCICGSGENSAVLHYGHAGAPNDRTIQNGDMCLFDMDGEYYSVASDITCSFPRNGKFTADQKAVYEAVLLSSRAVMGAMKPGDWWPDIDRLADRIHLEELAHMGILSGSVDAMVQAHLGAVFMPHGLGHFLGIDVHDVGGYPEGVERIDEPGLRSLRTARHLQPGMVLTVEPGIYFIDHLLDEALADPARASFLNREVLQRFRGFGGVRIEEDVVVIDSGIELLTCVPRTVEEIEACMAGCDKAFTPFSGPK
modifications: left off: small tags and cut ends
inhibition of tumor growth at the end of treatment: 91.5%
